This note sets out measurements from US20100151566A1 (published 2010).

Sequences and labels used below:
B3: scFv 2H1 (scFv)
scFv: QQVQLVQSGAEVKKPGESLKISCKGSGYSFTSYWIGWVRQMPGKGLEWMGIIYPGDSDTRYSPSFQGQVTISADKSISTAYLQWSSLKASDTAMYYCARLVVRDTEIWGQGTMVTVSSAPQAKSSGSGSESKVDQAVVTQEPSLTVSPGGTVTLTCASSIGAVTSGNYPNWFQQRPGQPPRALIYSTSNKHSWTPARFSGSLLGGKAALTLSGAQPEDEAEYYCLLSYSGARPVFGGGTKLTVLGAAAGSEQKLISEEDLNSHHHHHH
notes: Made in E. coli from pACR.1-scFv 2H1, purified by IMAC; also called scFv 2H1 fragment; bacterial scFv 2H1

Assay [1] addresses T1, Isoform 120 of mouse VEGF-A (R&D) (mouse, UniProt Q00731-3 27-146).
T1 construct: also called isoform 120 of murine VEGF
T1 sequence (looked up): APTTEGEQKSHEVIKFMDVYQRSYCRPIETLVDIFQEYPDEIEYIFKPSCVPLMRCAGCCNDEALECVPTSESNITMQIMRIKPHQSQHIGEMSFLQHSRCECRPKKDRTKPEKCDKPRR
Description: phage ELISA; + means OD at least 5 times the negative control. For orientation: An ELISA detects its analyte on a solid surface through an enzyme-linked reagent.
Description: The latter was immobilized in a 96-well Maxisorp (Nunc) immunoplate at a concentration of 1 μg/ml in PBS, during 16 h at 4° C. The plate was blocked at 22° C. with PBS-milk 4% during 1 h.
After blocking the plates, the phages purified as described above and diluted in PBS-skimmed milk 4% were added and incubated for 1 h at 22° C. After several washes, the bound phages were detected with anti-M13 peroxidase conjugated antibodies. […] As negative control, a sample of the mixture of phages of the unselected library was used, precipitated as described above.

The target in assay [2] is T1, Isoform 120 of mouse VEGF-A (R&D). Kind of assay: ELISA on coated antigen (Table 7).
Description: The purified Fab fragment was evaluated for its capacity of recognizing human VEGF using an ELISA assay. […] The purified Fab fragment was diluted and incubated for 1 h at 22° C.
The target is the same in assay [3]. Kind of assay: ELISA on coated antigen (Table 6).
Assay [4] deals with B3. Description: phage ELISA on coated scFv 2H1.

B1: phage clone 2H1-F (scFv)
scFv: QQVQLVQSGAEVKKPGESLKISCKGSGYSFTSYWIGWVRQMPGKGLEWMGIIYPGDSDTRYSPSFQGQVTISADKSISTAYLQWSSLKASDTAMYYCARLVVRDTEIWGQGTMVTVSSAPQAKSSGSGSESKVDQAVVTQEPSLTVSPGGTVTLTCASSIGAVTSGNYPNWFQQRPGQPPRALIYSTSNKHSWTPARFSGSLLGGKAALTLSGAQPEDEAEYYCLLSYSGARPVFGGGTKLTVLG
modifications: Displayed on filamentous phage, fused to a coat protein that the letters do not carry.
notes: Tested as phage; also called scFv 2H1-F; original phage scFv (2H1-F); not shown: phage coat protein of the phagemid display format, with any tag or junction residues before it
As for B1, the binding result in assay [1] is reported as “no binding”.

B2: Fab 2H1-32 (Fab, V domains shown)
VH: QVQLVQSGAEVKKPGESLKISCKGSGYSFTSYWIGWVRQMPGKGLEWMGIIYPGDSDTRYSPSFQGQVTISADKSISTAYLQWSSLKASDTAMYYCARLVVRDTEIWGQGTMVTVSS
VL: QAVVTQEPSLTVSPGGTVTLTCASSIGAVTSGNYPNWFQQRPGQPPRALIYSTSNKHSWTPARFSGSLLGGKAALTLSGAQPEDEAEYYCLLSYSGARPVFGGGTKLTVLG
notes: Made in E. coli, purified by IMAC, purity close to 85%; also called Fab fragment 2H1-32; Fab produced in E. coli
Turning to B2, the binding result in assay [2] is recorded as “no binding (tested: 20 µg/mL)”. As to B3, the binding result in assay [3] is recorded as “no binding (tested: 20 µg/mL)”.

B4: peptide CCRTLMLLQYHR displayed in filamentous phage (peptide)
peptide: CCRTLMLLQYHR
notes: Tested as phage; also called peptide phage clones
As to B4, the binding result in assay [4] is reported as “binds”.
